Data as given in the supplement of paper PMC11780869.

Test system: Bacillus subtilis
Test: cleaved RNA product abundance (RNA/gDNA barcode ratio) relative to median wild-type variant (ratio to wild type); higher = more accumulation of the downstream cleavage product
Experimental: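 MPRA in B. subtilis. Mutagenized RNase Y cleavage-site regions (9% mutation rate) were inserted into a barcoded reporter mRNA (truncated aprE or tetM). Cells were grown in LB at 37°C to OD600 0.3. The cleaved RNA isoform was gel-purified and its barcodes counted; the RNA:gDNA barcode ratio was normalised to the median wild-type variant, and the median over barcodes is reported per variant. The printed sequence is the variable window only; the reporter flanks are not printed.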

[1] = experiment (reporter, strain, medium): exp 2b: truncated aprE reporter, strain BJT200, cleavage site: cggR-gapA (positions -7 to +36 mutated)
[2] = experiment (reporter, strain, medium): exp 4a: truncated aprE reporter, strain BJT201 with 2% xylose (RNase J1 expressed), cleavage site: cggR-gapA (positions -7 to +36 mutated)
[3] = experiment (reporter, strain, medium): exp 8a: truncated aprE reporter, strain BJT201 with 2% xylose (RNase J1 expressed), cleavage site: glnRA (positions -5 to +31 mutated)
[4] = experiment (reporter, strain, medium): exp 6: tetM reporter, strain 168, cleavage site: cggR-gapA (positions -7 to +36 mutated)

| Sequence | cleaved RNA product abundance [2] | cleaved RNA product abundance [3] | further results |
| --- | --- | --- | --- |
| ACAGACGAAGGAGCCGCAAAGAAGTTATTAAAGGATGAATACTCCCTCAATATAAATATCTCTCACTTATTTAAA | 0.108 |  | cleaved RNA product abundance [1]: 0.117 |
| CGACATGTCCCGCTTCTTTCATTAATCCGTTAGCAACTGTTTTGCTATATACACTTACCTTTTAAGAGGAGGAAT |  | 0.964 |  |
| CGACATGTCCCGCTTCTTTCATTAATCCGTTCGCAACTGTTTTGTTATATACATTTACCTTTTAAGAGGAGGAAT |  | 0.411 |  |
| ACAGACGAAGGAGCCGCAAAGAAGTTATTAAGGGATAAGTAATCCCTCAATATAAATATCTCTCACTTATTTAAA | 0.785 |  | cleaved RNA product abundance [1]: 0.555 |
| CGACATGTCCCGCTTCTTTCATTAATCCGTTAGTAACTGTTTTGCTATAGACATTTACCTTTTAAGAGGAGGAAT |  | 0.536 |  |
| ACAGACGAAGGAGCCGCAAAGAAGTTATTAAGGGATGAATAATCCCTCAAAATAAATATTTCTCACTTATTTAAA | 0.319 |  |  |
| CGACATGTCCCGCTTCTTTCATTAATCAGTTAGCAACTGTTTTGCTATATACATTTATCTTTTAAGAGGAGGAAT |  | 0.854 |  |
| CGACATGTCCCGCTTCTTTCATTATTCCGTTAGCAACTGTTTAGCTATATACATTTACCTTTTAAGAGGAGGAAT |  | 0.706 |  |
| CGACATGTCCCGCTTCTTTCATTATTCCGTTAGCAATTGTTTTGCTATATACATTTACCTTTTAAGAGGAGGAAT |  | 1.83 |  |
| CGACATGTCCCGCTTCTTTCATTAATCCGTTAACAACTGTTTTACTATATACATTTACCTTTTAAGAGGAGGAAT |  | 0.222 |  |
| ACAGACGAAGGAGCCGCAAAGCAGTTATTAAGGGATGAATAATCCCTCAATATATATATCTCTCACTTATTTAAA | 0.687 |  |  |
| CGACATGTCCCGCTTCTTTCATTAATCAGTTAGAAACTGTTTTGCTATATACATTTACCTTTTAAGAGGAGGAAT |  | 0.328 |  |
| ACAGACGAAGGAGCCGCAAAGAAGTTATTAAGGTATGAATAATCCCTCAATATAAATATTTCTCACTTATTTAAA | 0.121 |  |  |
| ACAGACGAAGGAGCCGCAAAGAACTTATTAAGGGAAGAATAATCCCTCAATATAAATATCTCTCACTTATTTAAA | 0.235 |  |  |
| ACAGACGAAGGAGCCGCAAAGAAGTTATTTAGCGATGAATAATCCCTCAATATAAATATCTCTCACTTATTTAAA | 0.0809 |  | cleaved RNA product abundance [1]: 0.117 |
| ACAGACGAAGGAGCCGCAAAGAAGTTATTAAGGGATGAATAATCCCTAAATATTAATATCTCTCACTTATTTAAA |  |  | cleaved RNA product abundance [1]: 0.189 |
| ACAGACGAAGGAGCCGCAAAGAAGTTGTTAAGGGATGAATAATACCTCAATATAAATATCTCTCACTTATTTAAA |  |  | cleaved RNA product abundance [1]: 0.101; cleaved RNA product abundance [4]: 0.134 |
| ACAGACGAAGGAGCCGCAAAGAAGTTATTACGGGATAAATAATCCCTCAATATAAATATCTCTCACTTATTTAAA | 0.416 |  |  |
| ACAGACGAAGGAGCCGCAAAGAAGTTATTAAGGGATAAATAATCCCTCAGTATAAATATCTCTCACTTATTTAAA | 0.242 |  |  |
| ACAGACGAAGGAGCCGCAAAGAAGTTGTTAAGGGATGAATAATCCCTCAATATAAATATCTCTCACTTATTTAAA | 0.453 |  | cleaved RNA product abundance [1]: 0.357; cleaved RNA product abundance [4]: 0.537 |
| CGACATGTCCCGCTTCTTTCATTAATCCGTTAACAACTGTTTTGCTATATACATTTACATTTTAAGAGGAGGAAT |  | 0.202 |  |
| ACAGACGAAGGAGCCGCAGAGAAGTTATTAAGGGATTAATAATCCCTCAATATAAATATCTCTCACTTATTTAAA | 0.696 |  |  |
| ACAGACGAAGGAGCCGCAAAGAAGTTAATAAGGGATGCATAATCCCTCAATATAAATATCTCTCACTTATTTAAA | 0.301 |  |  |
| ACAGACGAAGGAGCCGCAAAGAAGTTATTAAAGGATGAATAATCCCTCTATATAAATATCTCTCACTTATTTAAA | 0.18 |  | cleaved RNA product abundance [1]: 0.132 |

| Sequence | cleaved RNA product abundance [2] | cleaved RNA product abundance [3] | further results |
| --- | --- | --- | --- |
| ACAGACGAAGGAGCCGCAGAGAAGTTATTAAGGGCTGAATAATCCCTCAATATAAATATCTCTCACTTATTTAAA | 0.694 |  |  |
| ACAGACGAAGGAGCCGCAAAGAAGTTTTTAAGGGATGAAAAATCCCTCAATATAAATATCTCTCACTTATTTAAA | 0.293 |  |  |
| ACAGACGAAGGAGCCGCAAAGAAGTAATTAAGGGATGAATAATCCCTCAATATAAATAGCTCTCACTTATTTAAA | 0.15 |  |  |
| CGACATGTCCCGCTTCTTTCATTAATCCCTTAGCAACTGTTTTGCTAGATACATTTACCTTTTAAGAGGAGGAAT |  | 0.127 |  |
| ACAGACGAAGGAGCCGCAAAGAAGTTATTAAGGGATGAATAATCTGTCAATATAAATATCTCTCACTTATTTAAA | 0.123 |  | cleaved RNA product abundance [1]: 0.0956 |
| ACAGACGAAGGAGCCGCAAAGAAGTTATTAAGCGCTGAATAATCCCTCAATATAAATATCTCTCACTTATTTAAA | 0.0581 |  | cleaved RNA product abundance [1]: 0.0756 |
| CGACATGTCCCGCTTCTTTCATTACTCCGTTAGCAACTGTTTTGCTATATACACTTACCTTTTAAGAGGAGGAAT |  | 0.587 |  |
| CGACATGTCCCGCTTCTTTCATTAATCCGATCGCAACTGTTTTGCTAGATACATTTACCTTTTAAGAGGAGGAAT |  | 0.119 |  |
| ACAGACGAAGGAGCCGCAAAGAAGTTATTAAGGGATGAATAACCCCTCAATCTAAATATCTCTCACTTATTTAAA | 0.0932 |  |  |
| CGACATGTCCCGCTTCTTTCATTAATCCGTTAGTAAGTGTTTTGCTATATACATTTACCTTTTAAGAGGAGGAAT |  | 0.265 |  |
| CGACATGTCCCGCTTCTTTCATTAATCCGTAAGCAACTGTTTTCCTATATACATTTACCTTTTAAGAGGAGGAAT |  | 0.354 |  |
| ACAGACGAAGGAGCCGCAAAGAAGTTATTAATGCATGAATAATCCCTCAATATAAATATCTCTCACTTATTTAAA | 0.0823 |  | cleaved RNA product abundance [1]: 0.0867 |
| ACAGACGAAGGAGCCGCAAATAAGTTATTAAGGGTTGAATAATCCCTCAATATAAATATCTCTCACTTATTTAAA | 0.423 |  | cleaved RNA product abundance [1]: 0.425 |
| CGACATGTCCCGCTTCTTTCATTAATCCCTTAGCAACTGTTTTGCTATATATATTTACCTTTTAAGAGGAGGAAT |  | 0.163 |  |
| ACAGACGAAGGAGCCGCAAAGAAGTTATTAAAGGAGGAATAATCCCTCAATATAAATATCTCTCACTTATTTAAA | 0.25 |  |  |
| ACAGACGAAGGAGCCGCACAGAAGTTATTTAGGGATGAATAATCCCTCAATATAAATATCTCTCACTTATTTAAA | 0.843 |  |  |
| ACAGACGAAGGAGCCGCAAAGAAGTTATTAAAGGATGAATAATCCCTCTATATAAAAATCTCTCACTTATTTAAA | 0.229 |  |  |
| ACAGACGAAGGAGCCGCAAAGAAGTTATCAAGGGATTAATAATCCCTCATTATAAATATCTCTCACTTATTTAAA | 0.314 |  |  |
| ACAGACGAAGGAGCCGCAAAGAAGTTATTAAGGGAACAATAATCCCTCAATATAAATATCTCTCACTTATTTAAA | 0.79 |  |  |
| ACAGACGAAGGAGCCGCAAAGAAGTTATTAAGGGTTGAGTAATCCCTCAATATAAATATCTCTCACTTATTTAAA | 0.375 |  |  |
| CGACATGTCCCGCTTCTTTCATTAATCCGTTAGCAACTGTTTTGCAATAAACATTTACCTTTTAAGAGGAGGAAT |  | 0.232 |  |
| CGACATGTCCCGCTTCTTTCATTAATCCGTTAGCAACAGTTTTGCTATATACATTTAGCTTTTAAGAGGAGGAAT |  | 0.489 |  |
| ACAGACGAAGGAGCCGCAATGAAGTTATTAAGGGATGAATAATCGCTCAATATAAATATCTCTCACTTATTTAAA | 0.0881 |  |  |
